# Reference: patent US20240043505A1 (UNIVERSITY OF PITTSBURGH OF THE COMMONWEALTH SYSTEM OF …, published 2024)
# B1: Nb34 (VHH)
# VHH: DVQLVESGGGLVQAGGSLRLSCAASGFTFSNYVMYWGRQAPGKGREWVSGIDSDGSDTAYASSVKGRFTISRDNAKNTLYLQMNNLKPEDTALYYCVKSKDPYGSPWTRSEFDDYWGQGTQVTVSS
# B2: Nb36 (VHH)
# VHH: HVQLVESGGGLVQAGGSLTLTCAASGRTFSSETMDMGWFRQAPGKEREFVAADSWNDGSTYYADSVKGRFTISRDSAKNTLYLQMNSLKPEDTAVYYCAAETYSIYEKDDSWGYWGQGTQVTVSS
# B3: Nb95 (VHH)
# VHH: QVQLVESGGGLVQAGGSLRLSCAASGRTFSSYSMGWFRQAQGKEREFVATINGNGRDTYYTNSVKGRFTISRDDATNTVYLQMNSLKPEDTAIYYCAADKDVYYGYTSFPNEYEYWGQGTQVTVSS
# B4: Nb105 (VHH)
# VHH: HVQLVESGGGLVQAGGSLRLSCAVSGRTFSTYGMAWFRQAPGKERDFVATITRSGETTLYADSVKGRFTISRDNAKNTVYLQMNSLKIEDTAVYYCAVRRDSSWGYSRDLFEYDYWGQGTQVTVSS
# B5: Nb92 (VHH)
# VHH: HVQLVESGGGLVQAGGSLRLSCAASGRTFSAYGMGWFRQAPGKEREFVAGIARSGSEYYGDSVKGRFTISRDNAKNTVYLQMASLKAEDTGVYYCAADPTILYHALSQRTQNYRYWGPGTQVTVSS
# B6: Nb91 (VHH)
# VHH: HVQLVESGGGLVQPGGSLRLSCAASGLTLNDYAIGWFRQAPGKEREGVSCISSSDGTTYYADSVKGRFTISRDNAKNTVYLQMNSLKPEDTAVYYCATDIAPFYCSWPLRTRLVEYWGQGTQVTVSS
# B7: Nb102 (VHH)
# VHH: QVQLVESGGGLVQAGGSLRLSCAASGRTFSNSHMGWFRQAPGKEREFVAVISRSGGSTLYADSVKGRFTISRDNAKNTVYLQMNSLKPEDTAVYYCAASRTAGLTSNRSLYDYWGRGTQVTVSS
# B8: Nb93 (VHH)
# VHH: EVQLVESGGGLVQPGGSLRLSCAASGFTFSSYAMSWVRQAPGKGREWVAGITPGSGTFYADSVKGRFTISRDNAKNTLSLEINSLKPEDTALYYCAKCRQEFSWDFSSRDPDDFDYWGQGTQVTVSS
# B9: Nb97 (VHH)
# VHH: HVQLVESGGGLVQAGGSLRLSCAAPGRTFSTSAMGWFRQAPGKEREFVAAIDWSNTNIHYADTVKGRFTISTDTAKNTVYLQMNNLKPEDTAVYYCAQGGWGLTQPISVDYWGKGTQVTVSS
# B10: Nb10 (VHH)
# VHH: DVQLVESGGGLVQAGGSLKLSCTASESTFNFNHIDWYRQAPGKQRESVAVITNTDVTNYADSVKGRFTISRDNAKNTVYLQMNSLKPEDTAVYLCNAWRFGPTGVKVDYWGQGTQVTVSS
# B11: Nb9 (VHH)
# VHH: HVQLVESGGGLVQTGGSLRLSCAFSGYTFSTFPTAWFRQAPGKEREFVAGIRWNGGSRDYTEYADFVKGRFTISRDNAKNMIYLQMISLKPEDTALYYCAASHGVVDGTSVNGYRYWGQGTQVTVSS
# B12: Nb99 (VHH)
# VHH: QVQLVESGGGLVQTGGSLRLSCAASGSTRSIWYSGWYRQAPGKQRELVASLTSGGTTYYPDSMKGRFTISGSSGLNMVYLQMNSLRPEDTAVYSCNVRTGSGVYWGQGTQVTVSS
# B13: Nb12 (VHH)
# VHH: HVQLVESGGGLVQAGGSLRLTCAASGGTFSTSTMDMGWFRQAPGKEREFVAVDSWNDGRAYYADSVKGRFTISRDSAKTTLYLQMNSLKPEDTAVYYCAARTERGVYDYWGRGTQVTVSS
# B14: Nb96 (VHH)
# VHH: HVQLVESGGGLVQAGDSLRLSCAASGRDFSSYAMGWFRQAPGKEREFVGVISSGDVGTFYEDSVKGRFTISRDDAKNTVDLQMNSLKPEDTAVYYCAAALYVTSTRGSYAYWGQGTQVTVSS
# B15: Nb107 (VHH)
# VHH: HVQLVESGGGLVQAGGSLRLSCAASGRAIGIHRMAWFRQAPGKERAFVAAIQWTGDMPTYADSLKGRFTISADNAKNTVSLQMTSLKPDDTAVYYCAARSATTALYDYWGQGTQVTVSS
# B16: Nb89 (VHH)
# VHH: HVQLVESGGGLVQAGGSLRLSCAASGGTFTTFRMAWFRQTPGKEREFVAASSWGFVNYADPVKGRFTISRDNAKNTVYLEMSSLKTEDTAVYYCAARNPGTGQYDYWGQGTQVTVSS
# B17: Nb94 (VHH)
# VHH: QVQLVESGGGLVQAGGSLRLSCTASGGTFRSFTMAWFRQAPGKEREFVATLSWTGVGTYYADSVKGRFTISRDIAKNTVYLEMNSLIPEDTAVYYCAASPYTYSLLSRTGDYGYWGQGTQVTVSS
# B18: Nb21 point mutant R31D (VHH)
# VHH: QVQLVESGGGLVQAGGSLRLSCAVSGLGAHDVGWFRRAPGKEREFVAAIGANGGNTNYLDSVKGRFTISRDNAKNTIYLQMNSLKPQDTAVYYCAARDIETAEYTYWGQGTQVTVSS
# Target: Y453F
# Assay: not given
row,Binder,binding affinity fold change relative to RBD WT
1,B1,1.2 fold
2,B2,1.32 fold
3,B3,-1.31 fold
4,B4,1.31 fold

# Target: N501Y
# Assay: not given
row,Binder,binding affinity fold change relative to RBD WT
1,B1,-5.79 fold
2,B2,1.35 fold
3,B3,1.37 fold
4,B4,-2.69 fold

# Target: T1, SARS-CoV-2 RBD E484K mutant (SARS-CoV-2, UniProt P0DTC2 334-527)
# Assay: not given
row,Binder,binding affinity fold change relative to RBD WT
1,B1,1.07 fold
2,B2,1.29 fold
3,B3,1.15 fold
4,B4,1.02 fold

# Target: A475V
# Assay: not given
row,Binder,binding affinity fold change relative to RBD WT
1,B1,-1 fold
2,B2,-1.13 fold
3,B3,1.21 fold
4,B4,-1.1 fold

# Target: K417N
# Assay: not given
row,Binder,binding affinity fold change relative to RBD WT
1,B1,-1.96 fold
2,B2,-2.94 fold
3,B3,1.11 fold
4,B4,-1.45 fold

# Target: N439K
# Assay: not given
row,Binder,binding affinity fold change relative to RBD WT
1,B1,1.18 fold
2,B2,1.43 fold
3,B3,-2.19 fold
4,B4,1.06 fold

# Target: T2, SARS-CoV-2 spike receptor-binding domain (RBD) (SARS-CoV-2, UniProt P0DTC2 319-541)
# Assay: not given
row,Binder,EC50 (read off the curve)
1,B2,~3 nM

# Target: T2, SARS-CoV-2 spike receptor-binding …
# Assay: not given
# Remark: another data set of the same source
row,Binder,EC50 (read off the curve)
1,B4,~2 nM

# Target: N501Y
# Assay: not given
# Remark: another data set of the same source
row,Binder,EC50 (read off the curve)
1,B1,~7 nM

# Target: T2, SARS-CoV-2 spike receptor-binding …
# Assay: not given
# Remark: another data set of the same source
row,Binder,EC50 (read off the curve)
1,B1,~1 nM

# Target: T2, SARS-CoV-2 spike receptor-binding …
# Assay: indirect ELISA on coated RBD ('ELISA affinity')
row,Binder,IC50
1,B5,4.92 nM
2,B1,0.47 nM
3,B6,1.28 nM
4,B7,28.4 nM
5,B2,1.04 nM
6,B8,1.15 nM
7,B9,0.32 nM
8,B3,2.28 nM
9,B10,0.24 nM
10,B11,0.89 nM
11,B12,0.35 nM
12,B13,539 nM
13,B14,0.04 nM
14,B15,0.76 nM
15,B4,0.26 nM
16,B16,1.09 nM
17,B17,0.5 nM

# Target: T2, SARS-CoV-2 spike receptor-binding …
# Assay: not given
# Remark: another data set of the same source
row,Binder,EC50 (read off the curve)
1,B3,~6 nM

# Target: T2, SARS-CoV-2 spike receptor-binding …
# Assay: SPR (Biacore 3000), RBD immobilised
Binder,Kd,koff,kon
B16,0.108 nM,0.000624 s⁻¹,5.78e+06 M⁻¹ s⁻¹

# Target: T2, SARS-CoV-2 spike receptor-binding …
# Assay: not given
# Remark: another data set of the same source
row,Binder,IC50
1,B1,0.63 nM
2,B2,1.7 nM
3,B3,6.05 nM
4,B4,0.97 nM

# Target: T1, SARS-CoV-2 RBD E484K mutant
# Assay: ELISA
row,Binder,binding result
1,B18,no binding

# Target: T2, SARS-CoV-2 spike receptor-binding …
# Assay: ELISA
row,Binder,binding result
1,B18,no binding
